Assay [1] concerns the target T1, GST-talin head (human talin1 head region 1-435) (human, UniProt Q9Y490 1-435).
T1 construct: The construct is human talin1 head region (1-435) cloned from HEK293T cells; also called wild-type GST-talin; not shown: GST (and further tags) of the pET42 vector
Nature of the assay: GST pull-down competition in vitro; competitor His-β1-integrin tail. The protocol: (§1) Talin interactions were assessed by GST pull-down using recombinant GST-talin head, His-PIPKIγ635 C-terminus, His-PIPKIγ661 wild-type or Tyr to Phe mutant C-terminus, and His-β1-integrin tail. […] Peptides containing the PIPKIγ661/talin binding sequence (Di Paolo, et al. (2002) supra) were designed to include phosphorylated Tyr⁶⁴⁴₁, phosphorylated Tyr⁶⁴⁹₁ and dual phosphorylated Tyr⁶⁴⁴ and Tyr⁶⁴⁹. The phosphorylated peptides displaced PIPKIγ661 from talin more efficiently than the non-phosphorylated peptide in HEK293T cell lysates.
(§2) Purified GST-talin head proteins were incubated with PIPKIγ661 tails or β1-integrin tail, together with Glutathione SEPHAROSE™ 4 Fast Flow (Amersham Biosciences, Piscataway, N.J.), in Buffer B (PBS, 0.2% NP-40, 2 mM DTT) at 4° C. for 4 hours. The beads were washed three times with Buffer B and analyzed by western blot. For competition assays, GST-talin head proteins were incubated with peptides or competing proteins for 2 hours, then the binding proteins were added and the mixtures were incubated for another 4 hours.

The target of assay [2] is T2, talin (Homo sapiens (Human), UniProt Q9Y490 1-2541).
T2 construct: Endogenous talin of HEK293T (and other) cells, detected with anti-talin antibody; also called talin (endogenous, in cell lysates)
T2 sequence (Q9Y490 other isoform, or with tags, fused parts or gaps limits assumed): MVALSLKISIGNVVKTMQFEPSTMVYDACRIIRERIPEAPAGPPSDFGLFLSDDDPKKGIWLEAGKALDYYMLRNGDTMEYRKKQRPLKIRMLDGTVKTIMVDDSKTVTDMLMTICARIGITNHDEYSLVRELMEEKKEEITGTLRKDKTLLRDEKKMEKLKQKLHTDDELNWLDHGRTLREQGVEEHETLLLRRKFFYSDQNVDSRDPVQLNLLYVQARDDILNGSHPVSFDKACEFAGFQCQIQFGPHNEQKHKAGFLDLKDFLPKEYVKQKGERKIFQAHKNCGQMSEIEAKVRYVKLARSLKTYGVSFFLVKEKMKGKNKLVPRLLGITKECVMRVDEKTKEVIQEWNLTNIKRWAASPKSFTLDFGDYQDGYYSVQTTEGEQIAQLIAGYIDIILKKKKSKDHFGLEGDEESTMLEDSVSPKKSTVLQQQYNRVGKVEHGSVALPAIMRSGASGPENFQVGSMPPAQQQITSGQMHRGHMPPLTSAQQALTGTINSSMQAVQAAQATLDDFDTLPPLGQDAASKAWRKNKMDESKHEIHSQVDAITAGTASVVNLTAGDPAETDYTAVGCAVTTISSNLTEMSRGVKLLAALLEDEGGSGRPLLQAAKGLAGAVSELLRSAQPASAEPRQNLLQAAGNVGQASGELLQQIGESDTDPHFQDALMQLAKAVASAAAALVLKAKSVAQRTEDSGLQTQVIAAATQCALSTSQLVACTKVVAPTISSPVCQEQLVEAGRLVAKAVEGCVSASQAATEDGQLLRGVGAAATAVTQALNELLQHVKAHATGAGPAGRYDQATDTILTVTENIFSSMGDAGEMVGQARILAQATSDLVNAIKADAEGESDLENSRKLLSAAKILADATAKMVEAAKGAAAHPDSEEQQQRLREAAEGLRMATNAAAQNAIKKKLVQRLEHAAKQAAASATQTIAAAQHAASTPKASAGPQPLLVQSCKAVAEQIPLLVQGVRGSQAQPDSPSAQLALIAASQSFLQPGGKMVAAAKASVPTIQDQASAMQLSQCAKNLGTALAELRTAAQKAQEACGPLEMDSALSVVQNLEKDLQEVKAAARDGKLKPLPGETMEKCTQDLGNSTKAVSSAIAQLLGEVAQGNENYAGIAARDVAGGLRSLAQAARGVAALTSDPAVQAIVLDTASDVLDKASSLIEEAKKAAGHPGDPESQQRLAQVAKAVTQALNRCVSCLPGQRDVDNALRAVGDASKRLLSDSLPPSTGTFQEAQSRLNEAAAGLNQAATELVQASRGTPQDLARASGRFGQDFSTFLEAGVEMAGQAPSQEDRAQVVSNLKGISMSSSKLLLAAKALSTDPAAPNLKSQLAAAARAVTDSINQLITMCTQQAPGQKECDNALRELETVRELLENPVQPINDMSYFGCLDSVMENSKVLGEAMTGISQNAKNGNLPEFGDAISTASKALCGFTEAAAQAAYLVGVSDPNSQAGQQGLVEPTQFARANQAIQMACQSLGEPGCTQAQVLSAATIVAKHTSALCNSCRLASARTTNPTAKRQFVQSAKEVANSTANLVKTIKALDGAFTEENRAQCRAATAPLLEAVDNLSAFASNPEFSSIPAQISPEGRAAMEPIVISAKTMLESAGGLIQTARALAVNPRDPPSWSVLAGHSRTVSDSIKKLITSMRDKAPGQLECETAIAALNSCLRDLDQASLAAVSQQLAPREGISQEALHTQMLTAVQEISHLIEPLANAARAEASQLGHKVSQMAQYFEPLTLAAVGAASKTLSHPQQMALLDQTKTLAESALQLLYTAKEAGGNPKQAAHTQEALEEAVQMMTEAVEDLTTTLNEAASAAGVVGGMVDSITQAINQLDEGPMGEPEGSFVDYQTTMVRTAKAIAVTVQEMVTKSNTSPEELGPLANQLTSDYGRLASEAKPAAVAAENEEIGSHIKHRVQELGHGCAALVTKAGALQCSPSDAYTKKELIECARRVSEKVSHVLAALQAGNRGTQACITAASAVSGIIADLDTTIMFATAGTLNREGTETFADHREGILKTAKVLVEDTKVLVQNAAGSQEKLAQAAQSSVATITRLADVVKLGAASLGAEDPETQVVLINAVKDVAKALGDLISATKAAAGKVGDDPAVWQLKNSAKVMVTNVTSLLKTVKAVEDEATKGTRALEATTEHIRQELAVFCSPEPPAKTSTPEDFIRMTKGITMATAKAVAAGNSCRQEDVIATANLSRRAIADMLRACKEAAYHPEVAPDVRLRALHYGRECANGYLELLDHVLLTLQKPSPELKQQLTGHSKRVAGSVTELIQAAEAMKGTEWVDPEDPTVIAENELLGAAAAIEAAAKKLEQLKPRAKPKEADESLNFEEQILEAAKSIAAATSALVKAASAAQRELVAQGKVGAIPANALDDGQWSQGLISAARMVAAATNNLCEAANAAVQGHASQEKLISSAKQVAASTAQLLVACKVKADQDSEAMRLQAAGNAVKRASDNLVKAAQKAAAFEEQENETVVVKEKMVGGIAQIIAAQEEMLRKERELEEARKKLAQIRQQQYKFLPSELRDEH
Kind of assay: co-immunoprecipitation of c-Myc-tagged chimeras. The source says: (§3) Two approaches were used to identify proteins that specifically interact with PIPKIγ661. […] As numerous focal adhesion proteins are tyrosine phosphorylated, the immunoprecipitates were immunoblotted with anti-phosphotyrosine antibodies. A tyrosine-phosphorylated protein of relative molecular mass 230,000 (Mᵣ 230K) was selectively immunoprecipitated with PIPKIγ661. This protein was identified as talin (Pasquale, et al. (1986) Proc. Natl Acad. Sci. USA 83:5507-5511; DeClue and Martin (1987) Mol. Cell Biol. 7:371-378). […] Only the PIPKIα/γ chimeras that target to focal adhesions associated with talin. To confirm the talin-PIPKIγ661 interaction, talin was immunoprecipitated from HEK293T cells overexpressing PIPKIγ661 or PIPKIγ635. Talin co-precipitated with PIPKIγ661, but not PIPKIγ635. It is known that endogenous PIPKIγ splice isoforms are widely expressed in various cell lines. When endogenous PIPKIγ was immunoprecipitated from a variety of cells types, talin association was consistently observed.
(§4) Immunoprecipitation was performed using standard methods (Zhang, et al. (1997) J. Biol. Chem. 272:17756-17761). […] The immunocomplexes were washed with Buffer A, separated by SDS-polyacrylamide gel electrophoresis (SDS-PAGE), and analyzed as indicated. […]

Assay [3] concerns the target T1, GST-talin head (human talin1 head …). Kind of assay: peptide competition of integrin tail (competitor) binding to GST-talin. As to the method: as §2
Another assay has as its target T3, vinculin (UniProt P18206-2 1-1066, limits assumed).
T3 sequence (looked up): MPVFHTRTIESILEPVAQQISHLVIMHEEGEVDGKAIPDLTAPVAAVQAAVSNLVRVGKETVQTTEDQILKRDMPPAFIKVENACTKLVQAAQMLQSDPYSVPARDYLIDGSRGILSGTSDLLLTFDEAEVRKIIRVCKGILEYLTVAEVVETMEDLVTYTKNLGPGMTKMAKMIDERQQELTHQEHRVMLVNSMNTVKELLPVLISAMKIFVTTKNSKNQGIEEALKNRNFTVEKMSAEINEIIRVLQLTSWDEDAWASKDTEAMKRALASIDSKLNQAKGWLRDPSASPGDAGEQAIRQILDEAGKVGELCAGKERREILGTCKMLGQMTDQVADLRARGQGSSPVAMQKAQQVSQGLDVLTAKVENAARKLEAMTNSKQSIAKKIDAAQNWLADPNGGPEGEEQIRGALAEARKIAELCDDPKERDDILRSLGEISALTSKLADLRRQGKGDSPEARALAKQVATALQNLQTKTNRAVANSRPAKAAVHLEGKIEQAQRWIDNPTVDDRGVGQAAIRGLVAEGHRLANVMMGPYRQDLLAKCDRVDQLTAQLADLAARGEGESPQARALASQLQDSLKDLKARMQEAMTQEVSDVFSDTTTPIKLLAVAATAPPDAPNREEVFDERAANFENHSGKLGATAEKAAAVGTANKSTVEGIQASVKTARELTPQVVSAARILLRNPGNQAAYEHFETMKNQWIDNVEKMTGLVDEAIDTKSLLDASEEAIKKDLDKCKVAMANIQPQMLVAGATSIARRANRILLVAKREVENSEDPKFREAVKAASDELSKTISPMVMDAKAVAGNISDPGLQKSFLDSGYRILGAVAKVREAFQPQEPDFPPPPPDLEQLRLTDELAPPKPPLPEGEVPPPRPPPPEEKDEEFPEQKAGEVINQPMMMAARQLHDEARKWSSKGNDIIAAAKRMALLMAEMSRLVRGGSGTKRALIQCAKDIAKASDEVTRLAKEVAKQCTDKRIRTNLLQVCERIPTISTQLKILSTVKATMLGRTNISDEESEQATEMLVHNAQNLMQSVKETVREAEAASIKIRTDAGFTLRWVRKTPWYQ
Kind of assay: co-immunoprecipitation with HA-tagged PIPKIγ661 from HEK 293T cells.
Excerpt: as §3, §4

In the next assay the target is tensin (UniProt Q9HBL0 1-1839, limits assumed). The description is as above.
tensin, sequence (Q9HBL0 whole entry): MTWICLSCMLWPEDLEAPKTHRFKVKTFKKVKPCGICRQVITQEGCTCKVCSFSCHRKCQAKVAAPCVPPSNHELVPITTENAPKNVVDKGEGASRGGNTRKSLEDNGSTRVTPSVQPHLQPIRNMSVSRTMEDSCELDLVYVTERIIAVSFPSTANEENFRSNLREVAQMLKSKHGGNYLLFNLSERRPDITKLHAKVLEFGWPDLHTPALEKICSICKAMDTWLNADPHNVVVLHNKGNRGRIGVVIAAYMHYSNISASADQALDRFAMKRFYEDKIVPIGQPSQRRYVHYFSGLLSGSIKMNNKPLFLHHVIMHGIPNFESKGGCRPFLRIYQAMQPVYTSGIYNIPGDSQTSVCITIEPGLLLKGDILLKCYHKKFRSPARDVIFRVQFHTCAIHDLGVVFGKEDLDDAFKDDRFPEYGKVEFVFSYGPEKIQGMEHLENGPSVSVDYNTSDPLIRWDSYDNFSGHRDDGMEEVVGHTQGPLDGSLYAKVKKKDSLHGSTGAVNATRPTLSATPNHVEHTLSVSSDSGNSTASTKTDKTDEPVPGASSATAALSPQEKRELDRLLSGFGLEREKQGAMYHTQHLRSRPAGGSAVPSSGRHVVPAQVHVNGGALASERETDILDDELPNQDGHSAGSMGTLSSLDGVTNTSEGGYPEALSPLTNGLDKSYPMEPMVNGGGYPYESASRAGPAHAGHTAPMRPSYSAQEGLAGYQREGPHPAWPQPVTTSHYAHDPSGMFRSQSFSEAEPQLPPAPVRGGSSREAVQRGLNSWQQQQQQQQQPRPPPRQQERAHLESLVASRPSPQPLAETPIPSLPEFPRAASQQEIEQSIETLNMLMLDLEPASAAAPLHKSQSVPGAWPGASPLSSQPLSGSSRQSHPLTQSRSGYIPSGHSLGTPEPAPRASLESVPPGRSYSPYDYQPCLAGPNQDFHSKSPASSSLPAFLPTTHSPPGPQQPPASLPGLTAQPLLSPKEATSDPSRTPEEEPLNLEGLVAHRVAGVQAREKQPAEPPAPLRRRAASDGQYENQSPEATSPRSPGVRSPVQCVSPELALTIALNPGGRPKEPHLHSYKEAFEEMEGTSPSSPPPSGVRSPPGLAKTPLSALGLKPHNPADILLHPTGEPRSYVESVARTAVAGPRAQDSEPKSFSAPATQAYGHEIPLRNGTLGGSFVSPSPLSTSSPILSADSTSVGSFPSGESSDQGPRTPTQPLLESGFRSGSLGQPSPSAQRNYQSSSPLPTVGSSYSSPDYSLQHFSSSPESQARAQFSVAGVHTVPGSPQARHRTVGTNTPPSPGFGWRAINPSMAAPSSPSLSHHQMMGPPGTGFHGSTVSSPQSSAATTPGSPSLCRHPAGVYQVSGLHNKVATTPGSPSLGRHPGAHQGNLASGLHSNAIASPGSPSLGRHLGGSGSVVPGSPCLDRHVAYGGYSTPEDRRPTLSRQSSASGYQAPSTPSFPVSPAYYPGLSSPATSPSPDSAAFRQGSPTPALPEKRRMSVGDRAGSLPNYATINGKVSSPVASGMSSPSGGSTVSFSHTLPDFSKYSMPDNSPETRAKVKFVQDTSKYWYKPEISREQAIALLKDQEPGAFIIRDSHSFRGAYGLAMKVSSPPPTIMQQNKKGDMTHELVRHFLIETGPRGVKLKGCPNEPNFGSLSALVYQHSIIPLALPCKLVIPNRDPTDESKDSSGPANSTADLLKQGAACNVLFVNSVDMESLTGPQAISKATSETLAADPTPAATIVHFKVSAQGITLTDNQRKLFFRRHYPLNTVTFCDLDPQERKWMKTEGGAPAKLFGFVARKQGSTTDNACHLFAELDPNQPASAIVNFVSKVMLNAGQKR
Excerpt: as §3, §4

The target in assay [4] is T2, talin. Kind of assay: co-immunoprecipitation from HEK293T cells in suspension versus adherent to type I collagen. The protocol:
The association between PIPKIγ661 and talin was also regulated by adhesion to type I collagen. […] However, in suspended cells, the PIPKIγ661 association with talin was restored when cells were stimulated with lysophosphatidic acid (LPA) or platelet-derived growth factor (PDGF).
Immunoprecipitation was performed using standard methods (Zhang, et al. (1997) J. Biol. Chem. 272:17756-17761). Briefly, transfected HEK293T cells were harvested and lysed in Buffer A (50 mM Tris-HCl, pH 7.5, 150 mM NaCl, 0.1-1.0% NP-40, 5.0 mM NaF, 2 mM Na₃VO₄, 4 mM Na₂P₂O₇, 1 mM EDTA, 0.1 mM EGTA, 1 mM phenylmethyl sulphonyl fluoride (PMSF), 10% glycerol), centrifuged and incubated with protein A-Sepharose and 5 μg anti-HA, anti-c-Myc, anti-Flag, anti-PIPKIγ or anti-talin antibody as indicated at 4° C. for 4 hours to overnight. The immunocomplexes were washed with Buffer A, separated by SDS-polyacrylamide gel electrophoresis (SDS-PAGE), and analyzed as indicated. For the kinase assay, the immunocomplexes were washed and stored in kinase buffer.
The cells were harvested and washed with PBS, and suspended in serum-free DMEM at 37° C. for 1 hour. After stimulation with 10 ng/ml platelet-derived growth factor (PDGF) (R&D Systems Inc., Minneapolis, Minn.), 1 μuM LPA (Sigma, St. Louis) or serum at 37° C. for 15 minutes, cells were lysed as for immunoprecipitation. […]

Assay [5] deals with T2, talin. Nature of the assay: peptide displacement of PIPKIγ661 (competitor) from talin in HEK293T cell lysates. The protocol: as §1
Assay [6] concerns the target T2, talin. Kind of assay: co-immunoprecipitation with talin.

The results in this text go back to patent US20040265295A1 (WISCONSIN ALUMNI RESEARCH FOUNDATION, published 2004).

Square brackets hold non-standard residues; d marks the D form. Ends that are not written are not given here. pY = N[C@@H](Cc1ccc(OP(=O)(O)O)cc1)C(=O)O; pT = C[C@@H](OP(=O)(O)O)[C@H](N)C(=O)O

T1 sequence (Q9Y490 1-435): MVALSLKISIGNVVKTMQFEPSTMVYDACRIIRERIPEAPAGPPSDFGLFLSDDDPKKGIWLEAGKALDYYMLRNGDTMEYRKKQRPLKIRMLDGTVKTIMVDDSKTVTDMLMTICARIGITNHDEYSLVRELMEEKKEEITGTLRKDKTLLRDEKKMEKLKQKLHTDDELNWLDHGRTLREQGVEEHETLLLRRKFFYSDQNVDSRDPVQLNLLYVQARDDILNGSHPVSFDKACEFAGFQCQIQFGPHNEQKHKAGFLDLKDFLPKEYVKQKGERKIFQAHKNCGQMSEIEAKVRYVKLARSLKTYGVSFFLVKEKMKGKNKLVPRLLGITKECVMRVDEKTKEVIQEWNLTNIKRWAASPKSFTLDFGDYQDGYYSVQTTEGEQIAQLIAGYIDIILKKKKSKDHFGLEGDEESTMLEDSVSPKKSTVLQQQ

B1: PIPKIγ661 peptide pY649 (peptide)
peptide: CDERSWVYSPLH[pY]SAR
notes: Synthetic peptide with an added N-terminal Cys
Take B1: the “fold higher affinity than the non-phosphorylated peptide” value in assay [1] was 20 fold.

B2: PIPKIγ661 peptide pY644 (peptide)
peptide: CDERSWV[pY]SPLHYSAR
notes: as for B1
For the molecule B2, in assay [1], the “fold higher affinity than the non-phosphorylated peptide” value is 20 fold.

B3: PIPKIα/γ635 chimera (c-Myc-tagged) (enzyme, not shown: small tags and cut ends)
chain: MASASSGPSSSVGFSSFDPAVPSCTLSSAASGIKRPMASEVLEARQDSYISLVPYASGMPIKKIGHRSVDSSGETTYKKTTSSALKGAIQLGITHTVGSLSTKPERDVLMQDFYVVESIFFPSEGSNLTPAHHYNDFRFKTYAPVAFRYFRELFGIRPDDYLYSLCSEPLIELCSSGASGSLFYVSSDDEFIIKTVQHKEAEFLQKLLPGYYMNLNQNPRTLLPKFYGLYCVQAGGKNIRIVVMNNLLPRSVKMHIKYDLKGSTYKRRASQKEREKPLPTFKDLDFLQDIPDGLFLDADMYNALCKTLQRDCLVLQSFKIMDYSLLMSIHNIDHAQREPLSSETQYSVDTRRPAPQKALYSTAMESIQGEARRGGTMETDDHMGGIPARNSKGERLLLYIGIIDILQSYRFVKKLEHSWKALVHDGDTVSVHRPGFYAERFQRFEDVQYDLRGARSYPTLEDEGRPDLLPCTPPSFEEATTASIATTLSSTSLSIPERSPSDTSEQPRYRRRTQSSGQDGRPQEEPHAEDLQKITVQVEPVCGVGVVPKEEGAGVEVPPCGASAAASVEIDAASQASEPASQASDEEDAPSTDIYF
notes: range 1-444
Turning to B3, the binding result with talin [2] is listed as “no binding”.

B4: β1-integrin tail peptide β1InpT (peptide)
peptide: CMNAKWD[pT]GENPIYKSA
notes: Synthetic peptide; also called phosphorylated Trp-Asp-Thr peptide
Regarding B4, the binding result in assay [3] is “binds”.

B5: Haemagglutinin (HA)-tagged PIPKIγ661 (enzyme, not shown: small tags and cut ends)
chain: MELEVPDEAESAEAGAVTAEAAWSAESGAAAGMTQKKAGLAEAPLVTGQPGPGHGKKLGHRGVDASGETTYKKTTSSTLKGAIQLGIGYTVGNLSSKPERDVLMQDFYVMESIFFPSEGSNFTPAHHFQDFRFKTYAPVAFRYFRELFGIRPDDYLYSLCNEPLIELSNPGASGSVFYVTSDDEFIIKTVMHKEAEFLQKLLPGYYMNLNQNPRTLLPKFYGLYCVQSGGKNIRVVVMNNVLPRVVKMHLKFDLKGSTYKRRASKKEKEKSLPTYKDLDFMQDMPEGLLLDSDTFGALVKTLQRDCLVLESFKIMDYSLLLGVHNIDQQERERQAEGAQSKADEKRPVAQKALYSTAMESIQGGAARGEAIETDDTMGGIPAVNGRGERLLLHIGIIDILQSYRFIKKLEHTWKALVHDGDTVSVHRPSFYAERFFKFMSSTVFRKSSSLKSSPSKKGRGALLAVKPLGPTAAFSASQIPSEREDVQYDLRGARSYPTLEDEGRPDLLPCTPPSFEEATTASIATTLSSTSLSIPERSPSDTSEQPRYRRRTQSSGQDGRPQEEPHAEDLQKITVQVEPVCGVGVVPKEEGAGVEVPPCGASAAASVEIDAASQASEPASQASDEEDAPSTDIYFPTDERSWVYSPLHYSARPASDGESDT
notes: tyrosine phosphorylated in cells to an extent that depends on the conditions; also called Type I phosphatidylinositol phosphate kinase isoform γ661; HA-PIPKIγ661
Consider B5, for which the binding result with vinculin is reported as “no binding”; with tensin, “no binding”; with talin [4], “binds”.

B6: PIPKIγ661 peptide PN (peptide)
peptide: CDERSWVYSPLHYSAR
notes: Synthetic peptide with an added N-terminal Cys; also called non-phosphorylated peptide; unphosphorylated peptide
On to B6, for which the binding result in the assay with talin [5] is listed as “binds”.

B7: PIPKIγ661 peptide pY644/649 (peptide)
peptide: CDERSWV[pY]SPLH[pY]SAR
notes: Synthetic peptide with an added N-terminal Cys; also called dual phosphorylated peptide
For B7, the “fold higher affinity than the non-phosphorylated peptide” value in assay [1] is 20 fold.

B8: PIPKIγ-W (enzyme)
chain: MELEVPDEAESAEAGAVTAEAAWSAESGAAAGMTQKKAGLAEAPLVTGQPGPGHGKKLGHRGVDASGETTYKKTTSSTLKGAIQLGIGYTVGNLSSKPERDVLMQDFYVMESIFFPSEGSNFTPAHHFQDFRFKTYAPVAFRYFRELFGIRPDDYLYSLCNEPLIELSNPGASGSVFYVTSDDEFIIKTVMHKEAEFLQKLLPGYYMNLNQNPRTLLPKFYGLYCVQSGGKNIRVVVMNNVLPRVVKMHLKFDLKGSTYKRRASKKEKEKSLPTYKDLDFMQDMPEGLLLDSDTFGALVKTLQRDCLVLESFKIMDYSLLLGVHNIDQQERERQAEGAQSKADEKRPVAQKALYSTAMESIQGGAARGEAIETDDTMGGIPAVNGRGERLLLHIGIIDILQSYRFIKKLEHTWKALVHDGDTVSVHRPSFYAERFFKFMSSTVFRKSSSLKSSPSKKGRGALLAVKPLGPTAAFSASQIPSEREDVQYDLRGARSYPTLEDEGRPDLLPCTPPSFEEATTASIATTLSSTSLSIPERSPSDTSEQPRYRRRTQSSGQDGRPQEEPHAEDLQKITVQVEPVCGVGVVPKEEGAGVEVPPCGASAAASVEIDAASQASEPASQASDEEDAPSTDIYFPTDERS
notes: The text says only that it lacks both Tyr644 and Tyr649; The end at Trp642 is inferred from the name; also called tail-truncation mutant of PIPKIγ661 lacking Tyr644 and Tyr649
With B8, in the assay with talin [6], the binding result is given as “no binding”.

B9: β1-integrin tail peptide β1InpY (peptide)
peptide: CMNAKWDTGENPI[pY]KSA
modifications: not fully specified; printed as Cys-Met-Asn-Ala-Lys-Trp-Asp-*Thr-Gly-Glu-Asn-Pro-Ile-*Tyr-Lys-Ser-Ala
notes: also called phosphorylated Asn-Pro-Ile-Tyr peptide
Take B9: in assay [3], the binding result is “binds”.
